50 variants from publication doi:10.1101/2021.08.20.457142 can be followed below.

Sequences and labels used below:
B1: MKK6 D-site peptide / p38-alpha (MAPK14) L195A, full length (parent complex)
chain 1: SQSKGKKRNPGLKIPKEAFEQP
chain 2: MSQERPTFYRQELNKTVWEVPERYQNLSPVGSGAYGSVCAAFDTKTGHRVAVKKLSRPFQSIIHAKRTYRELRLLKHMKHENVIGLLDVFTPARSLEEFNDVYLVTHLMGADLNNIVKCQKLTDDHVQFLIYQILRGLKYIHSADIIHRDLKPSNLAVNEDCELKILDFGLARHTDDEMTGYVATRWYRAPEIMANWMHYNQTVDIWSVGCIMAELLTGRTLFPGTDHIDQLKLILRLVGTPGAELLKKISSESARNYIQSLAQMPKMNFANVFIGANPLAVDLLEKMLVLDSDKRITAAQALAHAYFAQYHDPDDEPVAEPYDQSFESRDFLIDEWKSLTYDEVISFVPPPLDQEEMES

Variants of B1 are the subject of this experiment.
In the case of chain 1 SQSKVKKRNPGLKIPKEAFEQP [chain 1 G5V], the screen value is 1.75 Z-score of the enrichment rate within one screen of 711 sequences.
For chain 1 SQSKHKKRNPGLKIPKEAFEQP [chain 1 G5H], the screen value is 1.94 Z-score of the enrichment rate within one screen of 711 sequences.
For chain 1 SQSKQKKRNPGLKIPKEAFEQP [chain 1 G5Q] the value was 1.53 Z-score of the enrichment rate within one screen of 711 sequences; for chain 1 SQSKCKKRNPGLKIPKEAFEQP [chain 1 G5C], 1.42 Z-score of the enrichment rate within one screen of 711 sequences; for chain 1 SQAKGKKRNPGAKIPKEAFEQP [chain 1 S3A, chain 1 L12A], -1.11 Z-score of the enrichment rate within one screen of 711 sequences.
On to chain 1 SQSKGKKRFPGLKIPKEAFEQP [chain 1 N9F], for which the screen value was 1.54 Z-score of the enrichment rate within one screen of 711 sequences.
For chain 1 SQSKGKKRGPGLKIPKEAFEQP [chain 1 N9G] the value was 1.54 Z-score of the enrichment rate within one screen of 711 sequences.
For chain 1 SQSKGKKRLPGLKIPKEAFEQP [chain 1 N9L] the value was 1.77 Z-score of the enrichment rate within one screen of 711 sequences; for chain 1 SQSKGKKRAPGLKIPKEAFEQP [chain 1 N9A], 1.56 Z-score of the enrichment rate within one screen of 711 sequences; for chain 1 SQSKGKKREPGLKIPKEAFEQP [chain 1 N9E], -0.389 Z-score of the enrichment rate within one screen of 711 sequences.
With chain 1 SQSKGKKRVPGLKIPKEAFEQP [chain 1 N9V] the figure was 0.914 Z-score of the enrichment rate within one screen of 711 sequences; with chain 1 SQSKGKKRDPGLKIPKEAFEQP [chain 1 N9D], 0.0592 Z-score of the enrichment rate within one screen of 711 sequences; with chain 1 SQSKGKKRCPGLKIPKEAFEQP [chain 1 N9C], 1.38 Z-score of the enrichment rate within one screen of 711 sequences.
As for chain 1 SQAKGKARNPGLKIPKEAFEQP [chain 1 S3A, chain 1 K7A], the screen value is 0.46 Z-score of the enrichment rate within one screen of 711 sequences.
For chain 1 SQSKGKKRNPGLKIFKEAFEQP [chain 1 P15F] the value was 1.25 Z-score of the enrichment rate within one screen of 711 sequences.
For chain 1 SQSKGKKRNPGLKIAKEAFEQP [chain 1 P15A] the value was 2.82 Z-score of the enrichment rate within one screen of 711 sequences.
For chain 1 SQSKGKKRNAALKIPKEAFEQP [chain 1 P10A, chain 1 G11A] the value was 0.0844 Z-score of the enrichment rate within one screen of 711 sequences; for chain 1 SQSKGKKRNAGLKAPKEAFEQP [chain 1 P10A, chain 1 I14A], -0.954 Z-score of the enrichment rate within one screen of 711 sequences; for chain 1 SQSAGKKRNPGLKIPAEAFEQP [chain 1 K4A, chain 1 K16A], 0.0782 Z-score of the enrichment rate within one screen of 711 sequences.
For the variant chain 1 SQSKGKKRNPGLKIPWEAFEQP [chain 1 K16W], the screen value was 0.661 Z-score of the enrichment rate within one screen of 711 sequences.
Turning to chain 1 SQSKGKKRNPGLKIPGEAFEQP [chain 1 K16G], the screen value was -0.443 Z-score of the enrichment rate within one screen of 711 sequences.
With chain 1 SQSKGKKRNPGLKIPEEAFEQP [chain 1 K16E] the figure was -0.612 Z-score of the enrichment rate within one screen of 711 sequences; with chain 1 SQSKGKKRNPGLKIPCEAFEQP [chain 1 K16C], 0.392 Z-score of the enrichment rate within one screen of 711 sequences; with chain 1 SQSKGKKRNPGLKIPMEAFEQP [chain 1 K16M], 1.69 Z-score of the enrichment rate within one screen of 711 sequences.
For chain 1 SQSKGKKRNPGLKIPLEAFEQP [chain 1 K16L] the value was 1.28 Z-score of the enrichment rate within one screen of 711 sequences; for chain 1 SQSKGKKAAPGLKIPKEAFEQP [chain 1 R8A, chain 1 N9A], -0.113 Z-score of the enrichment rate within one screen of 711 sequences.
In the case of chain 1 SQSSGKKRNPGLKIPKEAFEQP [chain 1 K4S], the screen value was 0.887 Z-score of the enrichment rate within one screen of 711 sequences.
With chain 1 SQSTGKKRNPGLKIPKEAFEQP [chain 1 K4T] the figure was 0.747 Z-score of the enrichment rate within one screen of 711 sequences; with chain 1 SQSMGKKRNPGLKIPKEAFEQP [chain 1 K4M], 0.845 Z-score of the enrichment rate within one screen of 711 sequences.
For chain 1 SQSNGKKRNPGLKIPKEAFEQP [chain 1 K4N] the value was 0.364 Z-score of the enrichment rate within one screen of 711 sequences.
With chain 1 SQSRGKKRNPGLKIPKEAFEQP [chain 1 K4R] the figure was 2.04 Z-score of the enrichment rate within one screen of 711 sequences.
Regarding chain 1 SQSAGKKRNPGLKIPKEAFEQP [chain 1 K4A], the screen value was 0.525 Z-score of the enrichment rate within one screen of 711 sequences.
With chain 1 SQSLGKKRNPGLKIPKEAFEQP [chain 1 K4L] the figure was 1.3 Z-score of the enrichment rate within one screen of 711 sequences; with chain 1 SQSKGKKRNGGLKIPKEAFEQP [chain 1 P10G], 0.241 Z-score of the enrichment rate within one screen of 711 sequences; with chain 1 SQSKGKKRNDGLKIPKEAFEQP [chain 1 P10D], -0.469 Z-score of the enrichment rate within one screen of 711 sequences.
chain 1 SQSKGKKRNWGLKIPKEAFEQP [chain 1 P10W]: the screen value was 0.911 Z-score of the enrichment rate within one screen of 711 sequences.
For chain 1 SQSKGKKRNVGLKIPKEAFEQP [chain 1 P10V] the value was 0.742 Z-score of the enrichment rate within one screen of 711 sequences; for chain 1 SQSKGKKRNAGLAIPKEAFEQP [chain 1 P10A, chain 1 K13A], -0.927 Z-score of the enrichment rate within one screen of 711 sequences.
With chain 1 SQAKGKKRNPALKIPKEAFEQP [chain 1 S3A, chain 1 G11A] the figure was 0.988 Z-score of the enrichment rate within one screen of 711 sequences; with chain 1 SQAAGKKRNPGLKIPKEAFEQP [chain 1 S3A, chain 1 K4A], 0.582 Z-score of the enrichment rate within one screen of 711 sequences.
With chain 1 SQSKGNKRNPGLKIPKEAFEQP [chain 1 K6N] the figure was 0.746 Z-score of the enrichment rate within one screen of 711 sequences.
Consider chain 1 SQSKGIKRNPGLKIPKEAFEQP [chain 1 K6I], for which the screen value was 0.848 Z-score of the enrichment rate within one screen of 711 sequences.
With chain 1 SQSKGSKRNPGLKIPKEAFEQP [chain 1 K6S] the figure was 0.535 Z-score of the enrichment rate within one screen of 711 sequences; with chain 1 SQSKGTKRNPGLKIPKEAFEQP [chain 1 K6T], 0.469 Z-score of the enrichment rate within one screen of 711 sequences; with chain 1 SQSKGAARNPGLKIPKEAFEQP [chain 1 K6A, chain 1 K7A], -0.229 Z-score of the enrichment rate within one screen of 711 sequences.
For chain 1 SQSKGAKRNAGLKIPKEAFEQP [chain 1 K6A, chain 1 P10A] the value was -0.354 Z-score of the enrichment rate within one screen of 711 sequences; for chain 1 SQSKGKKANAGLKIPKEAFEQP [chain 1 R8A, chain 1 P10A], -0.354 Z-score of the enrichment rate within one screen of 711 sequences.
For the variant chain 1 SQSAGKKRNPGAKIPKEAFEQP [chain 1 K4A, chain 1 L12A], the screen value was -1.24 Z-score of the enrichment rate within one screen of 711 sequences.
Consider chain 1 SQSKGKARNPALKIPKEAFEQP [chain 1 K7A, chain 1 G11A], for which the screen value was 0.113 Z-score of the enrichment rate within one screen of 711 sequences.
For chain 1 SQSKGKKRNPALKAPKEAFEQP [chain 1 G11A, chain 1 I14A] the value was -0.938 Z-score of the enrichment rate within one screen of 711 sequences.
